Among the targets are YU2_FL; ZM109_FL; RSC3.
What all share (assay): BLI

B1: G54A (heavy chain) (antibody, V domains shown)
VH: QVQLVQSGGQMKKPGESMRISCRASGYEFIDCTLNWIRLAPGKRPEWMGWLKPRAGAVNYARPLQGRVTMTRDVYSDTAFLELRSLTVDDTAVYFCTRGKNCDYNWDFEHWGRGTPVIVSS
VL: EIVLTQSPGTLSLSPGETAIISCRTSQYGSLAWYQQRPGQAPRLVIYSGSTRAAGIPDRFSGSRWGPDYNLTISNLESGDFGVYYCQQYEFFGQGTKVQVDI
B1: the Kd was determined as 0.00651 µM with YU2_FL, 0.076 µM with ZM109_FL and 0.00264 µM in the assay with RSC3.

B2: V3A (light chain) (antibody, V domains shown)
VH: QVQLVQSGGQMKKPGESMRISCRASGYEFIDCTLNWIRLAPGKRPEWMGWLKPRGGAVNYARPLQGRVTMTRDVYSDTAFLELRSLTVDDTAVYFCTRGKNCDYNWDFEHWGRGTPVIVSS
VL: EIALTQSPGTLSLSPGETAIISCRTSQYGSLAWYQQRPGQAPRLVIYSGSTRAAGIPDRFSGSRWGPDYNLTISNLESGDFGVYYCQQYEFFGQGTKVQVDI
As for B2, the Kd in the assay with YU2_FL came to 0.0276 µM; with ZM109_FL, 0.0547 µM; with RSC3 it was 0.00609 µM.

Values taken from patent US20140322163A1 (published 2014).
